Results published in the DeepSol protein solubility set.

Assay: soluble on expression in E. coli; label from the status in PepcDB or PDB records

Sequence	soluble on expression in E. coli
GPGSMRKKSVQETDEVPNERLPHILSSSDDPTEVNKALVVLLRRLRAGAGEPISLSPATLSQLLRILVGRTDDAWLEVRKKIAFVFSELLSKDNADVLADALLYGRLHTTTSSEARASRIDFGGVDENSAPDPFTSLKKMKEILGKLAEAHGTVERCVPAADVFRTFLRLPALLEVIMSPEPLFDVEDNDGSAPAHHATKKRCFNDTCIGILCRSAQAYTTALCTETWRSLSTALCTNKALSAPLLLCYFNEFVGMFLGCLEGDNFVAKLHALELIDAILEDAAFLKARPKLAESPALLCALLPLTNSRSQHIRFLTFDAIKVFIAKGNKPAPIRYILYINRETLARYVEDYSPNEATIGKVLSAEKEKILRSLLSLEPLSHEEEVLLNASA	not soluble
MGSDKIHHHHHHVIRSLWISKTGLDAQQTQMDVIANNLANVSTNGFKRSRAVFEDLLYQTLRQPGAQSSQQTQLPSGLQLGTGVRPVATEHIFTQGNLQQTGNSKDVAIQGQGFFQVLRPDGSTAYTRDGSFQTDFEGQLVTSSGYHVQPAITIPPNAQSITVGRDGIVSVTTQDSTTPVQVGNLQLATFINPAGLQSVGENLYVETASSGTPNVTNPGTDGAGLLNQGYVETSNVNVVEELVNMIQTQRAYEINSKSVQTSDQMLQRLTQL	not soluble
MSLSTCPAACHCPLEAPKCAPGVGLVRDGCGCCKVCAKQLNEDCSKTQPCDHTKGLECNFGASSTALKGICRAQSEGRPCEYNSRIYQNGESFQPNCKHQCTCIDGAVGCIPLCPQELSLPNLGCPNPRLVKVTGQCCEEWVCDEDSIKDPMEEGHHHHHH	not soluble
MEIIFYHPTFNAAWWVNALEKALPHARVREWKVGDNNPADYALVWQPPVEMLAGRRLKAVFVLGAGVDAILSKLNAHPEMLDASIPLFRLEDTGMGLQMQEYAVSQVLHWFRRFDDYQALKNQALWKPLPEYTREEFSVGIMGAGVLGAKVAESLQAWGFPLRCWSRSRKSWPGVESYVGREELRAFLNQTRVLINLLPNTAQTVGIINSELLDQLPDGAYVLNLARGVHVQEADLLAALDSGKLKGAMLDVFSQEPLPQESPLWRHPRVAMTPHIAAVTRPAEAIDYISRTITQLEKGEPVTGQVDRARGY	not soluble
SEKTQETVQRILLEPYKYLLQLPGKQVRTKLSQAFNHWLKVPEDKLQIIIEVTEMLHNASLLIDDIEDNSKLRRGFPVAHSIYGIPSVINSANYVYFLGLEKVLTLDHPDAVKLFTRQLLELHQGQGLDIYWRDNYTCPTEEEYKAMVLQKTGGLFGLAVGLMQLFSDYKEDLKPLLNTLGLFFQIRDDYANLHSKEYSENKSFCEDLTEGKFSFPTIHAIWSRPESTQVQNILRQRTENIDIKKYCVHYLEDVGSFEYTRNTLKELEAKAYKQIDARGGNPELVALVKHLSKMFKEENE	soluble
MAETHSLGTKILIKIIRLYQIMISPFIGARCRFVPTCSCYGIEALKTHGLLKGGWLTLKRVLKCHPLNAGGFDPVPPKTNNNDEKK	not soluble
MYGKLNDLLEDLQEVLKHVNQHWQGGQKNMNKVDHHLQNVIEDIHDFMQGGGSGGKLQEMMKEFQQVLDEIKQQLQGGDNSLHNVHENIKEIFHHLEELVHR	soluble
PLQFHSVHGDNIRISRDGTLARRFESFCRAITFSARPVRINERICVKFAEISNNWNGGIRFGFTSNDPVTLEGTLPKYACPDLTNRPGFWAKALHEQYCEKDNILYYYVNGAGDVIYGINNEEKGVILTGIDTRSLLWTVIDIYGNCTGIEFLDSRIYMYQ	soluble
SASLIQRIARQACLTFRGSSTGSEGPAPGFPENLSLLKSLLTQVRAEDLNIAPRKALPQPLPRNLPPVTYMHIYETEGFSLGVFLLKSGTCIPLHDHPGMHGMLKVLYGTVRISCMDKLDTGAGHRRPPPEQQFEPPLQPLEREAVRPGVLRSRAEYTEASGPCVLTPHRDNLHQIDAVDGPAAFLDILAPPYDPEDGRDCHYYRVVEPIRPKEASGSACDLPREVWLLETPQADDFWCEGEPYPGPKVLP	soluble
GPGSMMREAGRQRRRNADSDESSSEDEQQQTTTTVQETTAAAPPARVRAKAPAAAVVSAPSMTLHADPTATQVTAPSAVSAETADSEGGSNEDAPSSAAAAAPPNEFSEEMEAIDYDALTYAALLDIMNRASRPVIEELMAQREQQVESTMQQQQNQRVERFLDVATTSSATAAEANGSSAEEEAAEGYRYNTMLTRLFEALNRNNEGSAMTERNQLPVPILERMGKKKTVIANFGRICDAFHRPMEDVKDFIEKELSIRGNLDSNNALILKFEIRKQTDFDRVLIKYLDEYVKCNSCHRIDTTLTKDGRRLELRCNVCTATRTVTAAGTATFSAQIEKRSRQRAAMIL	soluble
PKAPVTGYVRFLNERREQIRTRHPDLPFPEITKMLGAEWSKLQPAEKQRYLDEAEKEKQQYLKELWAYQQSEAYKVCTE	soluble
MRVAVVGATGAVGREILKVLEARNFPLSELRLYASPRSAGVRLAFRGEEIPVEPLPEGPLPVDLVLASAGGGISRAKALVWAEGGALVVDNSSAWRYEPWVPLVVPEVNREKIFQHRGIIANPNCTTAILAMALWPLHRAFQAKRVIVATYQAASGAGAKAMEELLTETHRFLHGEAPKAEAFAHPLPFNVIPHIDAFQENGYTREEMKVVWETHKIFGDDTIRISATAVRVPTLRAHAEAVSVEFARPVTPEAAREVLKEAPGVEVVDEPEAKRYPMPLTASGKWDVEVGRIRKSLAFENGLDFFVVGDQLLKGAALNAVQIAEEWLKGA	soluble
GMLEFTKRSLMNKYNINERVLELYERALNDVEKEFKYYDEIREYNQLKVLKAFQEERISESHFTNSSGYGYNDIGRDSLDRVYANIFNTESAFVRPHFVNGTHAIGAALFGNLRPNDTMMSICGMPYDTLHDIIGMDDSKKVGSLREYGVKYKMVDLKDGKVDINTVKEELKKDDSIKLIHIQRSTGYGWRKSLRIAEIAEIIKSIREVNENVIVFVDNCYGEFVEEKEPTDVGADIIAGSLIKNIGGGIATTGGYIAGKEEYVTQATFRVTVPGIGGECGSTFGVMRSLYEGLFMAPHVTIEAVKGAVFCARIMELAGFDVLPKYNDKRTDIIQAIKFNDEKKLIDFIKGIQTASPVDSFVQCEAWDMPGYEDKVIMAAGTFVQGASIELSADAPIREPYIGYLQGGLTFDHAKLGVLIALSKLIM	soluble
GPGSMENKDVATSWDYNSAEIGEFVPNSCTGTHFPNGIACAPWFQQQVTSQPHLCSSEFASSVESVGGPACRVGSEGSDYCFMNKSVCRNEEEGAEEVEGNEGESNLRWGMHIHPAALRAVQASSREVVQGLIRDKELLCSQFGTMQQNIPLAITWHDTTAPSPNQTLASTFTPLPHKKRSRDLVTLLSGISPDWEAAEEVGGASAAAHVGGLEIQRKRFRVDNPTIGSAAYEVSKAATAASPKPWIKARQKRVREEGDEDVNVNVEWGRGRDGNENSGR	soluble
SLGKKIETHLEDMVAQANAQLKLTAPESNLEVSYQNYHRGVFSSQLQLLVKPIAGKENPWIKSGQSVIFNESVDHGPFPLAQLKKLNLIPSMASIQTTLVNNEVSKPLFDMAKGETPFEINSRIGYSGDSSSDISLKPLNYEQKDEKVAFSGGEFQLNADRDGKAISLSGEAQSGRIDAVNEYNQKVQLTFNNLKTDGSSTLASFGERVGNQKLSLEKMTISVEGKELALLEGMEISGKSDLVNDGKTINSQLDYSLNSLKVQNQDLGSGKLTLKVGQIDGEAWHQFSQQYNAQTQALLAQPEIANNPELYQEKVTEAFFSALPLMLKGDPVITIAPLSWKNSQGESALNLSLFLKDPATTKEAPQTLAQEVDRSVKSLDAKLTIPVDMATEFMTQVAKLEGYQEDQAKKLAKQQVEGASAMGQMFRLTTLQDNTITTSLQYANGQITLNGQKMSLEDFVGMFAMPALNVPAVPAIPQQ	soluble
